Results on nine molecules are retold here after paper PMC6940790.

First the molecules themselves.
B1: Bgl1D (uncultured microorganism; L115N/S28T) (protein)
chain: MSLFFTFNPLEIVPTRVIGVPNHYQNYTWCNFQNGDYPFIDGIDINLIYQVKVGIPIVVRLETVATIFNILIPHLSESERDYIKRVYDYLRLDGRTSQSSYFFGPVDSQKIGLINRKYFFEWSSQMTYECLSGKVRGIAAPDKLVSEMNEIYNELMKVFNGDVSNIVNIGVN
B2: Bgl1D (uncultured microorganism) (protein)
chain: MSLFFTFNPLEIVPTRVIGVPNHYQNYSWCNFQNGDYPFIDGIDINLIYQVKVGIPIVVRLETVATIFNILIPHLSESERDYIKRVYDYLRLDGRTSQSSYFFGPVDSQKIGLILRKYFFEWSSQMTYECLSGKVRGIAAPDKLVSEMNEIYNELMKVFNGDVSNIVNIGVN
B3: Bgl1D (uncultured microorganism; F68L/I70M) (protein)
chain: MSLFFTFNPLEIVPTRVIGVPNHYQNYSWCNFQNGDYPFIDGIDINLIYQVKVGIPIVVRLETVATILNMLIPHLSESERDYIKRVYDYLRLDGRTSQSSYFFGPVDSQKIGLILRKYFFEWSSQMTYECLSGKVRGIAAPDKLVSEMNEIYNELMKVFNGDVSNIVNIGVN
B4: Bgl1D (uncultured microorganism; D44E/F68L/I70M/R91G/Y37H) (protein)
chain: MSLFFTFNPLEIVPTRVIGVPNHYQNYSWCNFQNGDHPFIDGIEINLIYQVKVGIPIVVRLETVATILNMLIPHLSESERDYIKRVYDYLGLDGRTSQSSYFFGPVDSQKIGLILRKYFFEWSSQMTYECLSGKVRGIAAPDKLVSEMNEIYNELMKVFNGDVSNIVNIGVN
B5: Bgl1D (uncultured microorganism; E154G/I57K/S28P) (protein)
chain: MSLFFTFNPLEIVPTRVIGVPNHYQNYPWCNFQNGDYPFIDGIDINLIYQVKVGIPKVVRLETVATIFNILIPHLSESERDYIKRVYDYLRLDGRTSQSSYFFGPVDSQKIGLILRKYFFEWSSQMTYECLSGKVRGIAAPDKLVSEMNEIYNGLMKVFNGDVSNIVNIGVN

The subject of the first data set is O=[N+]([O-])c1ccc(O[C@@H]2O[C@H](CO)[C@@H](O)[C@H](O)[C@H]2O)cc1. In words: purified protein. The settings on record: pH 10.0, glycine-NaOH, 30 °C.
By Km is commonly meant the concentration of substrate that gives half-maximal velocity. The term Vmax denotes the rate approached at saturating substrate. What is called kcat is the maximal rate divided by the concentration of active sites. A word on the kcat/Km: it is the second-order rate constant that governs catalysis at low substrate concentration. For “Bgl1D (uncultured microorganism; K117N/M148K/Q25L)”, the Km turned out to be 1250 ± 120 µM, the Vmax is 21.7 µmol/min/mg, the kcat was found to be 23.8 s⁻¹ and the kcat/Km stood at 14400 M⁻¹ s⁻¹.

For “Bgl1D (uncultured microorganism; E154G/I57K/S28P/W122G/Y82S)”, the Km amounted to 1670 ± 120 µM, the maximum rate (Vmax) is 42.5 µmol/min/mg, the kcat is 55.8 s⁻¹ and the kcat/Km is 33400 M⁻¹ s⁻¹.

In the case of “Bgl1D (uncultured microorganism; K117N/L115Q/M148K/Q25L/S28T)”, the Km worked out at 1740 ± 140 µM, the Vmax turned out to be 37.5 µmol/min/mg, the kcat was found to be 31.2 s⁻¹ and the kcat/Km is 17900 M⁻¹ s⁻¹.

Staying with this data set, now noted: pH 10.0, glycine-NaOH, results text says 30 °C, methods say optimal temperatures of 30 and 50 °C.
As for “Bgl1D (uncultured microorganism; D44E/L115N/R91G/S28T/Y37H)”, the Michaelis-Menten constant (Km) is 430 ± 40 µM, the Vmax amounted to 314 µmol/min/mg, the kcat was determined as 242 s⁻¹ and the kcat/Km turned out to be 562000 M⁻¹ s⁻¹.

Substrate in a further data set: O=[N+]([O-])c1ccc(O[C@@H]2O[C@H](CO)[C@@H](O)[C@H](O)[C@H]2O)cc1
Description: purified protein. As to conditions: pH 10.0, glycine-NaOH, 30 °C. This is another data set of the same source.
On to B1, for which the Km amounted to 1010 ± 450 µM, the Vmax turned out to be 26.3 µmol/min/mg, the catalytic constant (kcat) amounted to 16.5 s⁻¹ and the kcat/Km turned out to be 16400 M⁻¹ s⁻¹.

As to B2, the Km is 540 ± 30 µM, the Vmax is 20.1 µmol/min/mg, the kcat is 13.4 s⁻¹ and the kcat/Km turned out to be 24800 M⁻¹ s⁻¹.

B3: the Km was 530 ± 80 µM, the Vmax is 25.8 µmol/min/mg, the catalytic constant (kcat) was 29.4 s⁻¹ and the kcat/Km was 55400 M⁻¹ s⁻¹.

B4: the Michaelis-Menten constant (Km) stood at 470 ± 20 µM, the Vmax turned out to be 154 µmol/min/mg, the turnover number (kcat) came out at 139 s⁻¹ and the kcat/Km was 296000 M⁻¹ s⁻¹.

B5: the Km was determined as 1170 ± 50 µM, the Vmax amounted to 52.9 µmol/min/mg, the kcat was 48.1 s⁻¹ and the kcat/Km is 41100 M⁻¹ s⁻¹.
